The record followed here is patent US20230398228A1, “ERIBULIN-BASED ANTIBODY-DRUG CONJUGATES AND METHODS OF USE” (EISAI R&D MANAGEMENT CO., LTD., priority 2016, published 2023).

Data set [1] has as its system IGROV1 cells. The experiment in a line: Crystal Violet cytotoxicity assay (Example 4), IGROV1. In kind it is cell-based, human. As to conditions: mean of replicate experiments, read-out: Cytotoxicity IC50 (nM), IGROV1 (FR^hi, MSLN^neg). On the procedure: Test reagents were serial diluted 1:3 in 2 mL deep-well dilution plates, starting at 200 nM (10 dilutions total). […] Medium was then discarded. […] Plates were read at 570 nm. Data was analyzed using GraphPad Prism 6.

Data set [2] has as its system A431 cells. The experiment in a line: Crystal Violet cytotoxicity assay (Example 4), A431 (parental). In kind it is cell-based, human. The note with it: mean of replicate experiments, read-out: Cytotoxicity IC50 (nM), A431 (FR^neg, MSLN^neg).
Data set [3] has as its target human mesothelin (Homo sapiens, UniProt Q13421). Nature of the data set: ELISA, mesothelin. The note with it: MORAb-009 and its ADCs; for EC50: read-out: Antigen Binding ELISA, EC50. In kind it is binding. On the procedure: Recombinant human mesothelin was diluted to 1 μg/mL in coating buffer (50 mM carbonate-bicarbonate buffer, pH 9.6), and coated onto 96-well Maxisorp black plates (Thermo, Cat No. 43711, 100 μL/well) at 4° C., overnight. Coating solution was discarded and the plates were washed three times using 1×PBS with 0.05% Tween-20 (PBST) buffer. Plates were blocked in 300 μL blocking buffer (1% BSA in PBST) at room temperature for 2 hours on an orbital shaker. […] Blocking buffer was discarded and 100 μL/well of diluted antibody was added to the plates. Plates were incubated at room temperature for 2 hours on an orbital shaker. Antibody solution was discarded and plates were washed three times using PBST. 100 μL/well of goat-anti-human IgG (H+L)-HRP (1:10,000 dilution in blocking buffer) solution was added to the plates, and plates were incubated at room temperature for 1 hour on an orbital shaker. Secondary antibody solution was discarded and plates were washed three times using PBST. 100 μL/well of QuantaBlu fluorogenic peroxidase substrate working solution (Thermo, Cat No. 15169) was added to the plates, and plates were incubated at room temperature for 30 min. Fluorescence was read at excitation 325 nm/emission 420 nm using a SpectraMax M5 (Molecular Devices). Data was analyzed using SoftMaxPro 5.4.2 software with 4-parameter fitting.
For orientation: An ELISA detects its analyte on a solid surface through an enzyme-linked reagent.

Data set [4] can be described thus: DAR analysis by LC-MS (UPLC/ESI-MS, reverse-phase LC-MS). As to conditions: reverse-phase LC-MS. On the procedure:
ADCs were deglycosylated using PNGase F (New England BioLabs). G7 buffer (10 μL) and PNGase F (2 μL) were added to the mAb (90 μL, 1 mg/mL in DPBS). The reaction was incubated in a Discover microwave (CEM) for 2 cycles: (1) microwave power 10 W, 37° C., 10 min, followed by a 5-min pause; (2) microwave power 2 W, 37° C., 10 min. A portion of the sample was reduced by adding DTT to a final concentration of 20 mM, followed by incubation at 60° C. for 3 min. Samples were then analyzed using a Waters Acquity Ultra Performance Liquid Chromatography (UPLC) and quadrupole time of flight (Q-Tof) Premier mass spectrometer. Samples (0.5-2 μg each) were injected onto a MassPrep™ micro desalting column at 65° C., eluted from the column with a 5 min equilibration in 95% of mobile phase A, a 10 min gradient (5-90% B), and a 10 min re-equilibration in 95% of mobile phase A, at 0.05 mL/min. Mobile phase A was 0.1% formic acid in water. Mobile phase B was 0.1% formic acid in acetonitrile. The Q-Tof mass spectrometer was run in positive ion, V-mode with detection in the range of 500-4000 m/z. The source parameters were as follows: capillary voltage, 2.25 kV (intact antibody)-2.50 kV (reduced antibody); sampling cone voltage, 65.0 V (intact antibody) or 50.0 V (reduced antibody); source temperature, 100° C.; desolvation temperature, 250° C.; desolvation gas flow, 550 L/hr. The protein peak was deconvoluted using the MassLynx® MaxEnt 1 function. Relative intensities of each unconjugated, singly-conjugated, and multiply-conjugated heavy and light chain masses were combined to calculate the overall DAR using the formula:
2[[ILC+1+2(ILC+2)+3(ILC+3)+ . . . n(ILC+n)]/ΣILCtot]+2[[IHC+1+2(IHC+2)+3(IHC+3)+ . . . n(IHC+n)]/ΣIHCtot]
where ILC+1 is mass intensity of light chain conjugated with one cytotoxin, ILC+2 is mass intensity of light chain conjugated with two cytotoxins, etc. IHC are the intensities from the corresponding conjugated heavy chains, and ΣILCtot and ΣIHCtot are the combined intensities of all unconjugated and conjugated light chains and heavy chains, respectively.
DAR was also analyzed using an LC-MS method with a Waters Alliance HPLC with SQD/PDA detection. Samples were injected onto a Proteomix RP-1000 column ([…], 1000A, 4.6 mm×15 cm, Sepax) at 65° C., and eluted with a 3 min equilibration in 25% B, a 27 min linear gradient from 25%-55% B, a 5 min hold at 55% B, a 1 min change to 90% B, a 5 min hold at 90% B, a 1 min change back to 25% B, and a 5 min reequilibration at 25% B. Mobile phase A was 0.1% TFA in water, and mobile phase B was 0.1% TFA in acetonitrile. The elute was then split (10:1) into PDA and SQD detectors. The SQD detector was set up as ES positive, capillary voltage at 3.2 kV, cone voltage at 40 V, extractor at 3 V, and RF lens at 0.2 V, source temperature at 150° C., and desolvation temperature at 250° C. Mass data was acquired at 200-2000 m/z for 40 min, continuum mode, scan time 1 second. Data was analyzed and deconvoluted offline using MassLynx and MaxEnt1. DAR was calculated using the formula:
2[[AUCLC+1+2(AUCLC+2)+3(AUCLC+3)+ . . . n(AUCLC+n)]/[…]]+2[[AUCHC+1+2(AUCHC+2)+3(AUCHC+3)+ . . . n(AUCHC+n)]/ΣAUCHCtot]
where AUCLC+1 is the area under the curve of the light chain peak conjugated with one cytotoxin, AUCLC+2 is the area under the curve of the light chain peak conjugated with two cytotoxins, etc. AUCHC is the area under the curve of the corresponding heavy chains, and ΣAUCLCtot and ΣAUCHCtot are the combined area under the curve of all unconjugated and conjugated light chains and heavy chains, respectively.

What is called IC50 is the concentration that gives 50% inhibition. What is called EC50 is the concentration giving half of the maximal effect. Consider MORAb009-PEG2-eribulin, for which the IC50 in data set [1] turned out to be 42.8 nM. Also, in data set [2], the IC50 is over 100 nM. Besides, in data set [3], the “Antigen Binding ELISA, EC50” value came to 0.00884 µg/mL and the EC50 worked out at 0.06 nM. Moreover, the “DAR (LC-MS)” value in data set [4] amounted to 4.55.

As for MORAb009-PEG4-eribulin, in data set [1], the IC50 stood at 76.3 nM. For the same substance, in data set [2], the IC50 was over 100 nM. In data set [3], the “Antigen Binding ELISA, EC50” value is 0.0116 µg/mL and the EC50 was found to be 0.08 nM. The “DAR (LC-MS)” value in data set [4] is 4.48.
